Measurements published in US20100150860A1 (LUNAN PHARMACEUTICAL GROUP, published 2010).

B1: recombinant chimeric protein of neutrophil inhibitory factor and hirugen (TNHH), Met-NIF-GGGGG-FPRPGSGG-Hirugen (other)
chain: MNEHNLRCPQNGTEMPGFNDSIRLQFLAMHNGYRSKLALGHISITEESESDDDDDFGFLPDFAPRASKMRYLEYDCEAEKSAYMSARNCSDSSSPPEGYDENKYIFENSNNISEAALKAMISWAKEAFNLNKTKEGEGVLYRSNHDISNFANLAWDAREKFGCAVVNCPLGEIDDETNHDGETYATTIHVVCHYPKINKTEGQPIYKVGTPCDDCSEYTKKADNTTSADPVCIPDDGVCFIGSKADYDSKEFYRFRELGGGGGFPRPGSGGNGDFEEIPEEYL
B2: TNHH-G15/n3, NIF-(Gly)15-FPRP-(GSGG)3-hirugen (other)
chain: MNEHNLRCPQNGTEMPGFNDSIRLQFLAMHNGYRSKLALGHISITEESESDDDDDFGFLPDFAPRASKMRYLEYDCEAEKSAYMSARNCSDSSSPPEGYDENKYIFENSNNISEAALKAMISWAKEAFNLNKTKEGEGVLYRSNHDISNFANLAWDAREKFGCAVVNCPLGEIDDETNHDGETYATTIHVVCHYPKINKTEGQPIYKVGTPCDDCSEYTKKADNTTSADPVCIPDDGVCFIGSKADYDSKEFYRFRELGGGGGGGGGGGGGGGFPRPGSGGGSGGGSGGNGDFEEIPEEYL
B3: NIF-hirudin hybrid (NHH), NIF-(Gly)5-hirugen (other)
chain: NEHNLRCPQNGTEMPGFNDSIRLQFLAMHNGYRSKLALGHISITEESESDDDDDFGFLPDFAPRASKMRYLEYDCEAEKSAYMSARNCSDSSSPPEGYDENKYIFENSNNISEAALKAMISWAKEAFNLNKTKEGEGVLYRSNHDISNFANLAWDAREKFGCAVVNCPLGEIDDETNHDGETYATTIHVVCHYPKINKTEGQPIYKVGTPCDDCSEYTKKADNTTSADPVCIPDDGVCFIGSKADYDSKEFYRFRELGGGGGNGDFEEIPEEYL

What follows are binders tested against thrombin (of the antithrombin activity assay, species not stated) (assay: cell-based or functional assay).

| Binder | antithrombin activity (ATU/mg) |
| --- | --- |
| B1 | 1200 ATU/mg |
| B2 | 1200 ATU/mg |
| NGDFEEIPEEYL (not fully specified) [hirugen (printed 'Hirogen')] | 1000 ATU/mg |
| B3 | 800 ATU/mg |
